# In publication PMC10786891, “Massively parallel profiling of RNA-targeting CRISPR-Cas13d”:
# Changes are numbered by the printed parent chain. Numbers in names are those of the source.
# T1: EsCas13d, nuclease-dead (Eubacterium siraeum, UniProt B0MS50, R295A;H300A;R849A;H854A)
# T1 sequence: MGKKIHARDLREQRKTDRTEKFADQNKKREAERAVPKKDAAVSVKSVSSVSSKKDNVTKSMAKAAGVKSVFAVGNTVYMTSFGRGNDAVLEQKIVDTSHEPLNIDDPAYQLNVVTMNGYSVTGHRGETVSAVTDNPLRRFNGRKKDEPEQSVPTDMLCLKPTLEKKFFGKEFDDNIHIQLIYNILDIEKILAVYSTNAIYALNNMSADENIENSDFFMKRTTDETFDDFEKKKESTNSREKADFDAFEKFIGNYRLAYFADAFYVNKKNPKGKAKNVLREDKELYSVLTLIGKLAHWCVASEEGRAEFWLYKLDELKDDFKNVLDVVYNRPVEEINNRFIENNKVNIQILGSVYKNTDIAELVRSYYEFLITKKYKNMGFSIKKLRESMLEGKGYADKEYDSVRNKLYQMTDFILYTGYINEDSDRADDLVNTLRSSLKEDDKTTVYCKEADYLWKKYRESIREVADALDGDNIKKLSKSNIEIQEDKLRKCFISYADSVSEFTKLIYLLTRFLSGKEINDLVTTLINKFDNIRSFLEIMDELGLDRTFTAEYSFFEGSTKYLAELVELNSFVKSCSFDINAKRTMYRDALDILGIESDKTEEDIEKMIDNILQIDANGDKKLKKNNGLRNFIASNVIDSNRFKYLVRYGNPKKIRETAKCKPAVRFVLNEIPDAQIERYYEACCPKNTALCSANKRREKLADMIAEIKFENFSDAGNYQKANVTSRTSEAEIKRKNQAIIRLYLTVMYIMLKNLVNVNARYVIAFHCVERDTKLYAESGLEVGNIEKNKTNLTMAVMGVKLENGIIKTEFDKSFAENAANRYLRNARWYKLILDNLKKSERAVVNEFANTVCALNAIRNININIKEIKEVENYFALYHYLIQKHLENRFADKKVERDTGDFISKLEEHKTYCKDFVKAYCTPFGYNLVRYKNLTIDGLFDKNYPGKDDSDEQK
# B1: target 1 insU 3' of 14,insU 3' of 6 (mixed)
# RNA 1: CACCCGUGCAAAAAUGCAGGGGUCUAAAACUGAGCGGAUAACCUCUCUAUGG
# RNA 2: GGGAAUGGAUCCACAUCUACGAAUUCGUACCAUAGAGAUGGUUAUCCUGCUCACCGAGAUCGGAAGAGCACACGU
# B2: target 1 insA 3' of 21,insU 3' of 9 (mixed)
# RNA 1: B1 RNA 1
# RNA 2: B1 RNA 2 with U33A, A34U, G35A, A36G, G37A, A38G, U39A, C46U, U48C
# B3: target 1 G5U,C6U (mixed)
# RNA 1: B1 RNA 1
# RNA 2: GGGAAUGGAUCCACAUCUACGAAUUCGUACCAUAGAGAGGUUAUCUUCUCACCGAGAUCGGAAGAGCACACGU
# B4: target 1 insU 3' of 7,insA 3' of 2 (mixed)
# RNA 1: B1 RNA 1
# RNA 2: GGGAAUGGAUCCACAUCUACGAAUUCGUACCAUAGAGAGGUUAUCUCGCUCAACCGAGAUCGGAAGAGCACACGU
# B5: target 1 insG 3' of 16,insA 3' of 4 (mixed)
# RNA 1: B1 RNA 1
# RNA 2: B1 RNA 2 with A38G, U39A, U48G, G49C, C50A
# B6: target 1 insC 3' of 11 (mixed)
# RNA 1: B1 RNA 1
# RNA 2: GGGAAUGGAUCCACAUCUACGAAUUCGUACCAUAGAGAGGUCUAUCCGCUCACCGAGAUCGGAAGAGCACACGU
# B7: target 1 G15A,U19C (mixed)
# RNA 1: B1 RNA 1
# RNA 2: B3 RNA 2 with U33C, G37A, U46C, U47G
# B8: target 1 C4A,U8C (mixed)
# RNA 1: B1 RNA 1
# RNA 2: B3 RNA 2 with U44C, U46C, U47G, C48A
# B9: target 1 insC 3' of 17,insG 3' of 2 (mixed)
# RNA 1: B1 RNA 1
# RNA 2: B1 RNA 2 with A36C, G37A, A38G, U39A, U48G, G49C, C50U, U51C, C52G
# B10: target 1 insC 3' of 13,insA 3' of 3 (mixed)
# RNA 1: B1 RNA 1
# RNA 2: B1 RNA 2 with U39G, G40C, U48G, G49C, C50U, U51A
# B11: target 1 insU 3' of 20,insG 3' of 16 (mixed)
# RNA 1: B1 RNA 1
# RNA 2: GGGAAUGGAUCCACAUCUACGAAUUCGUACCAUUAGAGGAGGUUAUCCGCUCACCGAGAUCGGAAGAGCACACGU
# B12: target 1 insG 3' of 18,insG 3' of 14 (mixed)
# RNA 1: B1 RNA 1
# RNA 2: B11 RNA 2 with U34A, A35G, G39A, A40G
# B13: target 1 insU 3' of 17,insA 3' of 10 (mixed)
# RNA 1: B1 RNA 1
# RNA 2: B1 RNA 2 with A36U, G37A, A38G, U39A, U45A, C46U, U48C
# B14: target 1 U8G,C22U (mixed)
# RNA 1: B1 RNA 1
# RNA 2: B3 RNA 2 with C30U, U44G, U46C, U47G
# B15: target 1 insC 3' of 17,insU 3' of 9 (mixed)
# RNA 1: B1 RNA 1
# RNA 2: B1 RNA 2 with A36C, G37A, A38G, U39A, C46U, U48C
# B16: target 1 del9,del22 (mixed)
# RNA 1: B1 RNA 1
# RNA 2: GGGAAUGGAUCCACAUCUACGAAUUCGUACAUAGAGAGGUUUCCGCUCACCGAGAUCGGAAGAGCACACGU
# B17: target 1 insG 3' of 4,insG 3' of 3 (mixed)
# RNA 1: B1 RNA 1
# RNA 2: B4 RNA 2 with U46C, C47G, G48C, C49G, C51G, A52C
# B18: target 1 insC 3' of 17,insG 3' of 4 (mixed)
# RNA 1: B1 RNA 1
# RNA 2: B1 RNA 2 with A36C, G37A, A38G, U39A, U48G, G49C, C50G
# B19: target 1 complement block 10-12 (mixed)
# RNA 1: B1 RNA 1
# RNA 2: B3 RNA 2 with G40C, U41A, U42A, U46C, U47G
# B20: target 1 insG 3' of 16,insG 3' of 11 (mixed)
# RNA 1: B1 RNA 1
# RNA 2: B1 RNA 2 with A38G, U39A, U43G, A44U, U45A, C46U, U48C
# B21: target 1 C2G,U19C (mixed)
# RNA 1: B1 RNA 1
# RNA 2: B3 RNA 2 with U33C, U46C, U47G, C50G
# B22: target 1 insA 3' of 8,insU 3' of 4 (mixed)
# RNA 1: B1 RNA 1
# RNA 2: B4 RNA 2 with C45A, U46C, C51U, A52C
# B23: target 1 U11C,G13U (mixed)
# RNA 1: B1 RNA 1
# RNA 2: B3 RNA 2 with G39U, U41C, U46C, U47G
# B24: target 1 insG 3' of 16,insC 3' of 14 (mixed)
# RNA 1: B1 RNA 1
# RNA 2: B11 RNA 2 with U34A, A35G, G36A, A37G, G39A, A40C
# B25: target 1 insC 3' of 12,insG 3' of 10 (mixed)
# RNA 1: B1 RNA 1
# RNA 2: B1 RNA 2 with U39G, G41C, A44G, U45A, C46U, U48C
# B26: target 1 insA 3' of 10,insC 3' of 5 (mixed)
# RNA 1: B1 RNA 1
# RNA 2: B1 RNA 2 with U39G, G41U, U43A, U48G, G49C
# B27: target 1 insC 3' of 22,insC 3' of 15 (mixed)
# RNA 1: B1 RNA 1
# RNA 2: B11 RNA 2 with A32C, U33A, G39C
# B28: target 1 insG 3' of 21,insU 3' of 20 (mixed)
# RNA 1: B1 RNA 1
# RNA 2: B11 RNA 2 with A32G, U33A, A35U, G36A, A37G, G38A
# B29: target 1 C4A,C7U (mixed)
# RNA 1: B1 RNA 1
# RNA 2: B3 RNA 2 with C45U, U46C, U47G, C48A
# B30: target 1 C7G,A20C (mixed)
# RNA 1: B1 RNA 1
# RNA 2: B3 RNA 2 with A32C, C45G, U46C, U47G
# B31: target 1 insA 3' of 19,insC 3' of 19 (mixed)
# RNA 1: B1 RNA 1
# RNA 2: B11 RNA 2 with U34A, A35C, G36A, A37G, G38A
# B32: target 1 insU 3' of 6,insU 3' of 6 (mixed)
# RNA 1: B1 RNA 1
# RNA 2: B1 RNA 2 with U39G, G41U, U43A, A44U, U45C, C47U
# B33: target 1 insC 3' of 20,insG 3' of 4 (mixed)
# RNA 1: B1 RNA 1
# RNA 2: GGGAAUGGAUCCACAUCUACGAAUUCGUACCACUAGAGAGGUUAUCCGCGUCACCGAGAUCGGAAGAGCACACGU
# Target: T1, EsCas13d, nuclease-dead
# Assay: crRNA (strand 1, pre-loaded); Mg2+; 40 mM Tris-HCl pH 7.5, 150 mM NaCl, 6 mM MgCl2, 1 mM DTT, 0.1% Tween-20, 0.2 mg/ml BSA; 25 C; 10 min per concentration, then washed
# Conditions: tags: His6-TwinStrep-SUMO cleaved; N-terminal SNAP kept (SNAP-Surface 488); label: 3' end held by stalled T7 RNA polymerase
row,Binder,Kd
1,B1,61 ± 8 nM
2,B2,24.4 ± 2.1 nM
3,B3,48 ± 4 nM
4,B4,18.7 ± 1.5 nM
5,B5,10.5 ± 0.5 nM
6,B6,29.8 ± 3.1 nM
7,B7,61 ± 20 nM
8,B8,5.2 ± 0.6 nM
9,B9,~38 nM
10,B10,6.88 ± 0.2 nM
11,B11,36 ± 4 nM
12,B12,63 ± 5 nM
13,B13,25.2 ± 3.4 nM
14,B14,29.7 ± 2.6 nM
15,B15,39 ± 7 nM
16,B16,69 ± 9 nM
17,B17,8.2 ± 0.35 nM

row,Binder,Kd
1,B18,30.9 ± 2.4 nM
2,B19,6.8 ± 0.4 nM
3,B20,50 ± 5 nM
4,B21,18.5 ± 1 nM
5,B22,12.3 ± 0.7 nM
6,B23,60 ± 10 nM
7,B24,38 ± 5 nM
8,B25,12.3 ± 0.5 nM
9,B26,10.1 ± 0.5 nM
10,B27,40 ± 7 nM
11,B28,58 ± 9 nM
12,B29,3.39 ± 0.26 nM
13,B30,86 ± 30 nM
14,B31,21.5 ± 1.8 nM
15,B32,11.7 ± 0.7 nM
16,B33,11.4 ± 0.9 nM
